In paper PMC6925320 one finds Kd and stoichiometry N data, which are given here for six substances.

pKd: −log10 of the molar value.

The target of one assay is lipolysis-stimulated lipoprotein receptor (LSR) on Caco-2 cells (human (endogenous in Caco-2)) (UniProt Q86X29). As to the kind of experiment: flow cytometry on cells. (In general: Flow cytometry measures light scatter and fluorescence of single cells or particles in a stream.)
Sequence of UniProt Q86X29 (Q86X29 whole entry): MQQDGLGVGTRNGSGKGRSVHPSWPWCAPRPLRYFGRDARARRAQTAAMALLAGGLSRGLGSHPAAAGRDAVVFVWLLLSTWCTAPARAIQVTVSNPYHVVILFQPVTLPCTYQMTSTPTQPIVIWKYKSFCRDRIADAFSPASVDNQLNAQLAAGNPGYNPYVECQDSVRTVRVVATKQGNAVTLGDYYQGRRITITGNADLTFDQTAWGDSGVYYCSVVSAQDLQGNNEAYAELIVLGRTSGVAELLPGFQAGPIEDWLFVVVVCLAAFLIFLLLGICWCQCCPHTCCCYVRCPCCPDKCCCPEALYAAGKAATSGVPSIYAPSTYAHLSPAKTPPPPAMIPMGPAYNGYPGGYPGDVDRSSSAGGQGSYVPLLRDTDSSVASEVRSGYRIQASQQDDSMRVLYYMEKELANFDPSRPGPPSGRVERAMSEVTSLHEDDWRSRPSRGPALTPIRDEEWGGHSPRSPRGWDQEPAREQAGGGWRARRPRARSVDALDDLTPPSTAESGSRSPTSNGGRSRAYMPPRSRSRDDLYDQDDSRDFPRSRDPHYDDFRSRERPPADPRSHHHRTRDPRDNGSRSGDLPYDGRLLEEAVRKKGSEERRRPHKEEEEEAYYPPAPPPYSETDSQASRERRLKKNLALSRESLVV
The term pKd denotes the negative decadic logarithm of the Kd, by convention in mol/L. As to “Alexa-647-labeled CDTb F774D (from UniProt Q9KH41 43-876) (natural protein)”, the pKd is under 7.30.

The substance “Alexa-647-labeled CDTb I852E (from UniProt Q9KH41 43-876) (natural protein)” showed a negative logarithm of the Kd (pKd) of 7.12. As for “Alexa-647-labeled CDTb, wild type (from UniProt Q9KH41 43-876) (natural protein)”, the pKd was 8.35. “Alexa-647-labeled CDTb T854E (from UniProt Q9KH41 43-876) (natural protein)” showed a negative-log Kd (pKd) of 7.42. Regarding “Alexa-647-labeled CDTb Y812D (from UniProt Q9KH41 43-876) (natural protein)”, the pKd is 8.41. Compared with the last substance, the pKd is 0.99 log units higher.

The target of the next assay is trypsin-activated CDTb (cell-binding component of the C. difficile transferase toxin), oligomer (Clostridioides difficile strain R20291) (UniProt Q9KH41). As to the kind of experiment: cryo-EM structure.
The term stoichiometry N denotes a count of units in the complex or per binding partner. “trypsin-activated CDTb (cell-binding component of the C. difficile transferase toxin), oligomer (from UniProt Q9KH41 43-876) (natural protein)” showed a stoichiometry N of 7.
